Results: US20240325557A1, “TREATMENT OF CANCER” (INNATE PHARMA, priority 2020, published 2024)
Residue numbers refer to the chain shown, from its start. Blank lines part the entries; values can stand above or below the binder they belong to.

Legend:
[1] = molecular target: Rat Nectin-4 on CHO cells (rat); assay: flow cytometry titration on CHO cells expressing rat Nectin-4, median MFI (PE)
[2] = molecular target: monomeric huNectin4-his-BirA protein (human) (UniProt Q96NY8); assay: SPR (Biacore T200), antibody captured on Protein A, monomeric huNectin4-his-BirA injected

EC50 (read off the curve) [1]: 0.1 µg/mL
B1: antibody 5E7 (antibody, human IgG1, V domains shown)
VH: QVQLQQPGAELVKPGASVKLSCKASGYIFTSYWMHWVKQRPGQGLEWIGEIDPSDSYTNYNQKFKGKATLTLDKSSSTTYMQLSSLTSEDSAVYYCVRGYGNYGDYWGQGTTLTVSS
VL: DVVMTQAAFSNPVTLGTSASISCRSSKSLLHSNGITYLYWYLQKPGQSPQLLIYQMSNLASGVPDRFSSSGSGTDFTLRISRVEAEDVGVYYCAQNLELPWTFGGGTKLEIK

EC50 (read off the curve) [1]: 0.1 µg/mL
B2: antibody 10B12 (antibody, human IgG1, V domains shown)
VH: B1 VH with I28T, L72V, T79A
VL: B1 VL with V2I

Kd [2]: 13.7 nM
koff [2]: 0.0047 s⁻¹
kon [2]: 340000 M⁻¹ s⁻¹
B3: Enfortumab (ASG-22ME) (antibody, from a related filing, V domains shown)
VH: EVQLVESGGGLVQPGGSLRLSCAASGFTFSSYNMNWVRQAPGKGLEWVSYISSSSSTIYYADSVKGRFTISRDNAKNSLSLQMNSLRDEDTAVYYCARAYYYGMDVWGQGTTVTVSS
VL: DIQMTQSPSSVSASVGDRVTITCRASQGISGWLAWYQQKPGKAPKFLIYAASTLQSGVPSRFSGSGSGTDFTLTISSLQPEDFATYYCQQANSFPPTFGGGTKVEIKR
